Assay results published in PMC3084762, “Distinct Properties of Hexameric but Functionally Conserved Mycobacterium tuberculosis Transcription-Repair Coupling Factor” (PLoS ONE, 2011).

Legend:
NTD of MtbMfd = molecular target: T1, NTD of MtbMfd (Mycobacterium tuberculosis, UniProt P9WMQ5)
T1 construct: gene mfd

SEC = molecular target: the molecule itself; test: SEC
dynamic light scattering = molecular target: the molecule itself; test: dynamic light scattering

Molecule | Ksv (NTD of MtbMfd) | stoichiometry N (SEC) | stoichiometry N (dynamic light scattering)
Nc1ncnc2c1ncn2[C@@H]1O[C@H](COP(=O)(O)OP(=O)(O)OP(=O)(O)O)[C@@H](O)[C@H]1O [ATP] | 526 µM | – | –
Mycobacterium tuberculosis Mfd (transcription-repair coupling factor), full length, His-tagged (natural protein, also called MtbMfd; His-tagged MtbMfd; not shown: His tag, N-terminal, kept) MTAPGPACSDTPIAGLVELALSAPTFQQLMQRAGGRPDELTLIAPASARLLVASALARQGPLLVVTATGREADDLAAELRGVFGDAVALLPSWETLPHERLSPGVDTVGTRLMALRRLAHPDDAQLGPPLGVVVTSVRSLLQPMTPQLGMMEPLTLTVGDESPFDGVVARLVELAYTRVDMVGRRGEFAVRGGILDIFAPTAEHPVRVEFWGDEITEMRMFSVADQRSIPEIDIHTLVAFACRELLLSEDVRARAAQLAARHPAAESTVTGSASDMLAKLAEGIAVDGMEAVLPVLWSDGHALLTDQLPDGTPVLVCDPEKVRTRAADLIRTGREFLEASWSVAALGTAENQAPVDVEQLGGSGFVELDQVRAAAARTGHPWWTLSQLSDESAIELDVRAAPSARGHQRDIDEIFAMLRAHIATGGYAALVAPGTGTAHRVVERLSESDTPAGMLDPGQAPKPGVVGVLQGPLRDGVIIPGANLVVITETDLTGSRVSAAEGKRLAAKRRNIVDPLALTAGDLVVHDQHGIGRFVEMVERTVGGARREYLVLEYASAKRGGGAKNTDKLYVPMDSLDQLSRYVGGQAPALSRLGGSDWANTKTKARRAVREIAGELVSLYAKRQASPGHAFSPDTPWQAELEDAFGFTETVDQLTAIEEVKADMEKPIPMDRVICGDVGYGKTEIAVRAAFKAVQDGKQVAVLVPTTLLADQHLQTFGERMSGFPVTIKGLSRFTDAAESRAVIDGLADGSVDIVIGTHRLLQTGVRWKDLGLVVVDEEQRFGVEHKEHIKSLRTHVDVLTMSATPIPRTLEMSLAGIREMSTILTPPEERYPVLTYVGPHDDKQIAAALRRELLRDGQAFYVHNRVSSIDAAAARVRELVPEARVVVAHGQMPEDLLETTVQRFWNREHDILVCTTIVETGLDISNANTLIVERADTFGLSQLHQLRGRVGRSRERGYAYFLYPPQVPLTETAYDRLATIAQNNELGAGMAVALKDLEIRGAGNVLGIEQSGHVAGVGFDLYVRLVGEALETYRDAYRAAADGQTVRTAEEPKDVRIDLPVDAHLPPDYIASDRLRLEGYRRLAAASSDREVAAVVDELTDRYGALPEPARRLAAVARLRLLCRGSGITDVTAASAATVRLSPLTLPDSAQVRLKRMYPGAHYRATTATVQVPIPRAGGLGAPRIRDVELVQMVADLITALAGKPRQHIGITNPSPPGEDGRGRNTTIKERQP | – | 6 | ~6
MtbMfd, endogenous in M. tuberculosis H37Ra cell lysate (natural protein) MTAPGPACSDTPIAGLVELALSAPTFQQLMQRAGGRPDELTLIAPASARLLVASALARQGPLLVVTATGREADDLAAELRGVFGDAVALLPSWETLPHERLSPGVDTVGTRLMALRRLAHPDDAQLGPPLGVVVTSVRSLLQPMTPQLGMMEPLTLTVGDESPFDGVVARLVELAYTRVDMVGRRGEFAVRGGILDIFAPTAEHPVRVEFWGDEITEMRMFSVADQRSIPEIDIHTLVAFACRELLLSEDVRARAAQLAARHPAAESTVTGSASDMLAKLAEGIAVDGMEAVLPVLWSDGHALLTDQLPDGTPVLVCDPEKVRTRAADLIRTGREFLEASWSVAALGTAENQAPVDVEQLGGSGFVELDQVRAAAARTGHPWWTLSQLSDESAIELDVRAAPSARGHQRDIDEIFAMLRAHIATGGYAALVAPGTGTAHRVVERLSESDTPAGMLDPGQAPKPGVVGVLQGPLRDGVIIPGANLVVITETDLTGSRVSAAEGKRLAAKRRNIVDPLALTAGDLVVHDQHGIGRFVEMVERTVGGARREYLVLEYASAKRGGGAKNTDKLYVPMDSLDQLSRYVGGQAPALSRLGGSDWANTKTKARRAVREIAGELVSLYAKRQASPGHAFSPDTPWQAELEDAFGFTETVDQLTAIEEVKADMEKPIPMDRVICGDVGYGKTEIAVRAAFKAVQDGKQVAVLVPTTLLADQHLQTFGERMSGFPVTIKGLSRFTDAAESRAVIDGLADGSVDIVIGTHRLLQTGVRWKDLGLVVVDEEQRFGVEHKEHIKSLRTHVDVLTMSATPIPRTLEMSLAGIREMSTILTPPEERYPVLTYVGPHDDKQIAAALRRELLRDGQAFYVHNRVSSIDAAAARVRELVPEARVVVAHGQMPEDLLETTVQRFWNREHDILVCTTIVETGLDISNANTLIVERADTFGLSQLHQLRGRVGRSRERGYAYFLYPPQVPLTETAYDRLATIAQNNELGAGMAVALKDLEIRGAGNVLGIEQSGHVAGVGFDLYVRLVGEALETYRDAYRAAADGQTVRTAEEPKDVRIDLPVDAHLPPDYIASDRLRLEGYRRLAAASSDREVAAVVDELTDRYGALPEPARRLAAVARLRLLCRGSGITDVTAASAATVRLSPLTLPDSAQVRLKRMYPGAHYRATTATVQVPIPRAGGLGAPRIRDVELVQMVADLITALAGKPRQHIGITNPSPPGEDGRGRNTTIKERQP | – | 6 | –
purified untagged or native MtbMfd (natural protein, also called untagged MtbMfd) MTAPGPACSDTPIAGLVELALSAPTFQQLMQRAGGRPDELTLIAPASARLLVASALARQGPLLVVTATGREADDLAAELRGVFGDAVALLPSWETLPHERLSPGVDTVGTRLMALRRLAHPDDAQLGPPLGVVVTSVRSLLQPMTPQLGMMEPLTLTVGDESPFDGVVARLVELAYTRVDMVGRRGEFAVRGGILDIFAPTAEHPVRVEFWGDEITEMRMFSVADQRSIPEIDIHTLVAFACRELLLSEDVRARAAQLAARHPAAESTVTGSASDMLAKLAEGIAVDGMEAVLPVLWSDGHALLTDQLPDGTPVLVCDPEKVRTRAADLIRTGREFLEASWSVAALGTAENQAPVDVEQLGGSGFVELDQVRAAAARTGHPWWTLSQLSDESAIELDVRAAPSARGHQRDIDEIFAMLRAHIATGGYAALVAPGTGTAHRVVERLSESDTPAGMLDPGQAPKPGVVGVLQGPLRDGVIIPGANLVVITETDLTGSRVSAAEGKRLAAKRRNIVDPLALTAGDLVVHDQHGIGRFVEMVERTVGGARREYLVLEYASAKRGGGAKNTDKLYVPMDSLDQLSRYVGGQAPALSRLGGSDWANTKTKARRAVREIAGELVSLYAKRQASPGHAFSPDTPWQAELEDAFGFTETVDQLTAIEEVKADMEKPIPMDRVICGDVGYGKTEIAVRAAFKAVQDGKQVAVLVPTTLLADQHLQTFGERMSGFPVTIKGLSRFTDAAESRAVIDGLADGSVDIVIGTHRLLQTGVRWKDLGLVVVDEEQRFGVEHKEHIKSLRTHVDVLTMSATPIPRTLEMSLAGIREMSTILTPPEERYPVLTYVGPHDDKQIAAALRRELLRDGQAFYVHNRVSSIDAAAARVRELVPEARVVVAHGQMPEDLLETTVQRFWNREHDILVCTTIVETGLDISNANTLIVERADTFGLSQLHQLRGRVGRSRERGYAYFLYPPQVPLTETAYDRLATIAQNNELGAGMAVALKDLEIRGAGNVLGIEQSGHVAGVGFDLYVRLVGEALETYRDAYRAAADGQTVRTAEEPKDVRIDLPVDAHLPPDYIASDRLRLEGYRRLAAASSDREVAAVVDELTDRYGALPEPARRLAAVARLRLLCRGSGITDVTAASAATVRLSPLTLPDSAQVRLKRMYPGAHYRATTATVQVPIPRAGGLGAPRIRDVELVQMVADLITALAGKPRQHIGITNPSPPGEDGRGRNTTIKERQP | – | 6 | –
